These results are taken from patent publication US7595158B2, “Bcl2L12 polypeptide activators and inhibitors” (Dana-Farber Cancer Institute, Inc., priority 2003, dated 2009).

One test has as its system Erk1 and Erk2. The test can be described thus: Phosphorylation of Erk1/2 (p44/p42) in transfected astrocytes. The class given is cell-based. The settings on record: vs control cells expressing LacZ. On the procedure:
Ink4a/Arf deficient astrocytes transfected with a vector encoding either LacZ, Bcl2L12-V5, or EGFR* polypeptides were cultured for six days. Each day, the number of cells in each culture was determined. In addition, stably transfected cells were harvested and assessed for the phosphorylation of Erk1/2 (p44/p42).

In the next test the test system is caspases 3 and 7. Kind of test: Western blot of procaspase maturation in STS-treated Ink4a/Arf deficient astrocytes. The class given is cell-based, mouse. The settings on record: STS 1 μM, 0-16 hours. On the procedure: In another experiment, Ink4a/Arf deficient astrocytic cell cultures ectopically expressing the Bcl2L12-V5 polypeptide or containing pBabe were treated with STS (1 μM) for 0, 2, 4, 8, or 16 hours. Cell lysates were analyzed by Western blotting using anti-caspase-9 antibodies (1:1000; Cell Signaling), anti-caspase-7 antibodies (0.5 μg/ml; BD Pharmingen), anti-caspase-3 antibodies (0.25 μg/ml; BD Transduction Laboratories), anti-cleaved caspase-9 antibodies (1:1000; Cell Signaling), anti-cleaved capase-7 antibodies (1:1000; Calbiochem), and anti-cleaved caspase-3 antibodies (1:1000; Calbiochem).

Another test concerns BJAB and SKW6.4 cells. Kind of test: Apoptosis of lymphoid cells stimulated with anti-CD95 or STS (FACS scatter). The class given is cell-based. The settings on record: anti-CD95 or STS 24 hours, GFP positive cells. On the procedure:
In addition, BJAB and SKW6.4 cells were co-transfected (1:3 ratio) with a vector encoding GFP and either an empty vector control or a vector encoding Bcl2L12-V5. After 24 hours, the transfected cells were stimulated with anti-CD95 or STS for 24 hours at different concentrations. The cells were analyzed by FACS. A gate was set only on GFP positive cells. Apoptosis was defined as an increase in sideward scatter and a decrease in forward scatter. SKW6.4 cells are type I B cells, while BJAB cells are type II B cells.

The test system of the next test is astrocytes. The test can be described thus: Mitochondrial membrane potential (JC-1, FACS) in STS-treated astrocytes. The class given is cell-based. The text has this: Like nuclear swelling and plasma membrane integration, a loss of the mitochondrial membrane potential is a hallmark of […]. To determine the dissipation of ΔΨM, STS treated astrocytes transfected with either vector only (pBabe) or a vector encoding a Bcl2L12-V5 polypeptide were stained with JC-1, and cells with an increase in fluorescence (FL-1) were quantified using FACS analysis. JC-1 (5,5′,6,6′-tetrachloro-1,1′,3,3′-tetraethylbenzimidazolylcarbocyanine iodide) is a green-fluorescent probe that exists as a monomer at low concentrations or at low membrane potential. […] Thus, the emission of this cyanine dye can be used as a sensitive measure of mitochondrial membrane potential.

B1: Bcl2L12-V5: Bcl2L12 polypeptide having the V5 epitope tag, ectopically expressed from pBabe-Bcl2L12-V5 vector; human amino acid sequence 1-334 (protein)
chain: MGRPAGLFPPLCPFLGFRPEACWERHMQIERAPSVPPFLRWAGYRPGPVRRRGKVELIKFVRVQWRRPQVEWRRRRWGPGPGASMAGSEELGLREDTLRVLAAFLRRGEAAGSPVPTPPRSPAQEEPTDFLSRLRRCLPCSLGRGAAPSESPRPCSLPIRPCYGLEPGPATPDFYALVAQRLEQLVQEQLKSPPSPELQGPPSTEKEAILRRLVALLEEEAEVINQKLASDPALRSKLVRLSSDSFARLVELFCSRDDSSRPSRACPGPPPPSPEPLARLALAMELSRRVAGLGGTLAGLSVEHVHSFTPWIQAHGGWEGILAVSPVDLNLPLD
modifications: left off: small tags and cut ends
As to B1, in the test with Erk1 and Erk2, the “levels of Erk1 and Erk2 phosphorylation” value is recorded as “higher”. Further, the “maturation of effector caspases” value in the test with caspases 3 and 7 was “significant reduction of the maturation of effector caspases 3 and 7”. Further, the apoptosis result in the test with BJAB and SKW6.4 cells is “promoted apoptosis”. The “dissipated mitochondrial membrane potential” value in the test on astrocytes is “marked increase in the dissipated membrane potential”.
